Results as given in PMC7102954, “A crucial RNA-binding lysine residue in the Nab3 RRM domain undergoes SET1 and SET3-responsive methylation”.
Residue numbers refer to the chain shown, from its start.

Experiments:
Conditions in all cases: protein: recombinant; tags: N-terminal His6 (pET28a)
[1] = target: T1, Nab3 RRM K363R (Saccharomyces cerevisiae, UniProt P38996 329-419, K363R); assay: pull-down (streptavidin, anti-His blot densitometry); 25 uM RNA; protein 0-60 uM; apparent Kd; 10 mM Tris-HCl pH 7.8, 50 mM NaCl, 1 mM EDTA, 5% glycerol, 2.5 mM DTT; 30 min at 15 C, then beads 2 h at 4 C; washes with 0.1% Tween-20
T1 sequence: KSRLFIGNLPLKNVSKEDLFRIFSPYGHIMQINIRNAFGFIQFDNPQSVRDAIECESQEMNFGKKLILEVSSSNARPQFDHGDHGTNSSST

[2] = target: T2, Nab3 RRM (Saccharomyces cerevisiae, UniProt P38996 329-419); assay: as above
T2 sequence: T1 sequence with R35K

[3] = target: T3, Nab3 RRM K363A (Saccharomyces cerevisiae, UniProt P38996 329-419, K363A); assay: pull-down (streptavidin, anti-His blot); 25 uM RNA; 10 mM Tris-HCl pH 7.8, 50 mM NaCl, 1 mM EDTA, 5% glycerol, 2.5 mM DTT; 30 min at 15 C, then beads 2 h at 4 C; washes with 0.1% Tween-20
T3 sequence: T1 sequence with R35A

[4] = target: T4, Nab3 RRM S399A (Saccharomyces cerevisiae, UniProt P38996 329-419, S399A); assay: as above
T4 sequence: T1 sequence with R35K, S71A

UUUCUUUUUUCUUAUUCUUAUU (ssRNA) [snR47 RNA probe]
Kd [1]: 41.9 µM
Kd [2]: 13.7 µM
binding result [3]: no binding
binding result [4]: no binding
